Experimental data taken from US20220073646A1 (Hoffmann-La Roche, published 2022).
Substitutions are numbered along the chain they refer to. Names and notes keep the numbering of the source. One block for each binder: values may come before it.

What was measured:
[1] = biological target: T1, murine FAP (His-tagged ectodomain) (mouse, UniProt P97321 27-761); assay: SPR, FAP captured via anti-His, 1:1 fit, apparent KD (bivalent)
T1 construct: also called mu FAP
Protocol: The capacity of the bispecific constructs to bind human, murine and cynomolgus FAP was assessed by surface plasmon resonance (SPR). All SPR experiments were performed on a Biacore T200 (Biacore) at 25° C. with HBS-EP as running buffer (0.01 M HEPES pH 7.4, 0.15 M NaCl, 3 mM EDTA, 0.005% Surfactant P20, (Biacore).
Immobilization levels for the anti-His antibody of up to 18000 resonance units (RU) were used.
Following the capture step, the bispecific constructs as well as control molecules were immediately passed over the chip surface at a concentration ranging from 0.006-100 nM with a flow rate of 30 μL/minute for 280 s and a dissociation phase of 180 s. Bulk refractive index differences were corrected for by subtracting the response obtained in a reference flow cell, where no FAP was immobilized. Affinity was determined using the Langmuir 1:1 curve fitting. For bivalent binding the same 1:1 fitting was used leading to an apparent KD value.

[2] = biological target: T2, human fibroblast activation protein (huFAP) on cells (human, UniProt Q12884 1-760); assay: flow cytometry, WM266-4
T2 construct: also called NIH/3T3-huFAP clone 39; NIH/3T3-huFAP clone 19

[3] = biological target: T3, human GITR on HEK cells (HEK-GITR) (human, UniProt Q9Y5U5 26-241); assay: flow cytometry, HEK-GITR
T3 construct: also called cell surface expressed human GITR
T3 sequence: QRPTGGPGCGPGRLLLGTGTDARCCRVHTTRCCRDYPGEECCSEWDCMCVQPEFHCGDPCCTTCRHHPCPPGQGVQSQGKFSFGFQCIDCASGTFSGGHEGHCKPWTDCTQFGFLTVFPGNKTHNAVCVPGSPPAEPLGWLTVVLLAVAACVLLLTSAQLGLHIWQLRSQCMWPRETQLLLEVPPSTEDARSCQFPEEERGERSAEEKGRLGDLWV
Protocol: Cells were washed twice with complete media and once with PBS+2% FBS before adjusting cell density to 1×10⁷ cells/mL in PBS+2% FBS.
Plates were centrifuged at 4° C., 3 minutes at 600×g and supernatant was flicked off. Cells were resuspended in 50 μL/well of 4° C. cold PBS+2% FBS containing titrated anti-GITR antibody constructs for 120 minutes at 4° C. Plates were washed twice with 200 μL/well 4° C. PBS+2% FBS to remove unbound construct. […] Plates were centrifuged at 4° C. for 3 minutes at 600×g and washed twice with PBS+2% FBS. […] Plates were centrifuged at 4° C., 3 minutes at 600×g and supernatant was flicked off.

[4] = biological target: T4, recombinant human 4-1BB Fc(kih) (human, UniProt P0DOX5 223-449 = IgG part, biotin on C-terminal Avi tag where used biotinylated); assay: SPR, captured IgG, 4-1BB Fc(kih) analyte
T4 construct: also called hu4-1BB; biotinylated human 4-1BB
Protocol: (§1) All SPR experiments were performed on a Biacore T200 at 25° C. with HBS-EP as running buffer (0.01 M HEPES pH 7.4, 0.15 M NaCl, 3 mM EDTA, 0.005% Surfactant P20, Biacore, Freiburg/Germany).
Anti-human Fab antibody (Biacore, Freiburg/Germany) was directly coupled on a CM5 chip at pH 5.0 using the standard amine coupling kit (Biacore, Freiburg/Germany). The immobilization level was approximately 7500 RU. […] The dissociation was monitored for 120 seconds. Bulk refractive index differences were corrected for by subtracting the response obtained on reference flow cell.

[5] = biological target: T5, mouse 4-1BB on activated mouse splenocytes (mouse, UniProt P20334 24-256); assay: flow cytometry, activated mouse T cells
T5 sequence (P20334 24-256 limits assumed): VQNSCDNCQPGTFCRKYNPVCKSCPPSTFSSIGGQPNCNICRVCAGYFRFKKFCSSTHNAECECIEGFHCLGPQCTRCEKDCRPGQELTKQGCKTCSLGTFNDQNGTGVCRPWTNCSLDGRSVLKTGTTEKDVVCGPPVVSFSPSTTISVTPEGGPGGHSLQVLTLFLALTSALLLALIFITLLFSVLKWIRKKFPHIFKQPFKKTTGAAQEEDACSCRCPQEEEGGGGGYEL
Protocol: (§2) Cells were incubated for 30 min at 4° C., washed twice with 200 μL/well FACS-buffer and resuspended for fixation with 50 μL/well DPBS containing 1% (v/v) formaldehyde. The next day cells were resuspended in 200 μL/well FACS buffer and acquired using the 2-laser Cantoll (BD Bioscience with DIVA software) or 5-laser Fortessa (BD Bioscience with DIVA software). Gates were set on CD8⁺ and CD4⁺ T cells and the median fluorescence intensity (MFI) of the secondary detection antibody was used to analyze binding of primary antibodies. Using Graph Pad Prism (Graph Pad Software Inc.) data was baselined by subtracting the blank values (no primary antibody added) and the EC₅₀ values were calculated using non-linear regression curve fit (robust fit).

[6] = biological target: T6, cynomolgus 4-1BB on activated cynomolgus PBMC (cynomolgus, UniProt Q07011 24-255 (human entry)); assay: flow cytometry, activated cynomolgus CD4 T cells
T6 chain: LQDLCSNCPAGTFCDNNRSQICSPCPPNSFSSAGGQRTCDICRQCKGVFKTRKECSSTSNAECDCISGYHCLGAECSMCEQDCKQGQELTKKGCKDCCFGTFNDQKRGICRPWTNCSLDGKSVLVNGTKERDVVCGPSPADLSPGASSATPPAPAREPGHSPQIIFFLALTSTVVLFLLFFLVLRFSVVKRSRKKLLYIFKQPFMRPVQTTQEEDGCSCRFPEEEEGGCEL
Protocol: (§3) Cells were washed twice with FACS buffer and resuspended in 100 μL/well FACS buffer supplied with 0.2 μg/mL DAPI to discriminated dead from living cells. Cells were immediately acquired using a 5-laser Fortessa (BD Bioscience with DIVA software). Gates were set on CD8⁺ and CD4⁺ T cells and the median fluorescence intensity (MFI) of the secondary detection antibody was used to analyze binding of primary antibodies. Using Graph Pad Prism (Graph Pad Software Inc.) data was baselined by subtracting the blank values (no primary antibody added) and the EC₅₀ values were calculated using non-linear regression curve fit (robust fit).

[7] = biological target: T6, cynomolgus 4-1BB on activated …; assay: flow cytometry, activated cynomolgus CD8 T cells
Protocol: as §3

[8] = biological target: recombinant cynomolgus 4-1BB Fc(kih) (cynomolgus, UniProt P0DOX5 223-449 = IgG part, biotin on C-terminal Avi tag where used biotinylated); assay: SPR, captured IgG, cyno 4-1BB Fc(kih) analyte
Protocol: as §1
Anti-human Fab antibody (Biacore, Freiburg/Germany) was directly coupled on a CM5 chip at pH 5.0 using the standard amine coupling kit (Biacore, Freiburg/Germany). The immobilization level was approximately 9000 RU.

human 4-1BB on cells [9] = biological target: T7, human 4-1BB on cells (human, UniProt Q07011 24-255); assay: flow cytometry, activated human CD8 T cells
T7 construct: also called HeLa-hu4-1BB-NF-kB-luc clone 26
Protocol: Plates were centrifuged 4 minutes with 400×g at 4° C. and supernatant was discarded. […] Afterwards cells were washed once with 200 μL/well cold FACS buffer (DPBS supplied with 2% (v/v) FBS, 5 mM EDTA pH8 (Amresco, Cat. No. E177) and 7.5 mM sodium azide (Sigma-Aldrich S2002)). […] Cells were washed four times with 200 μL/well 4° C.
Cells were washed twice with 200 μL FACS buffer/well and fixated by resuspending in 50 μL/well DPBS containing 1% Formaldehyde (Sigma, HT501320-9.5L). Cells were acquired the same or next day using a 3-laser Canto II (BD Bioscience with DIVA software) or a 5-laser Fortessa (BD Bioscience with DIVA software) or 3-laser MACSQuant Analyzer 10 (Miltenyi Biotech). Gates were set on CD8⁺ and CD4⁺ T cells and the median fluorescence intensity (MFI) or geo mean of fluorescence intensity of the secondary detection antibody was used to analyze binding of primary antibodies. Using Graph Pad Prism (Graph Pad Software Inc.) data was baselined by subtracting the blank values (no primary antibody added) and the EC50 values were calculated using non-linear regression curve fit (robust fit).

human 4-1BB on cells [10] = biological target: T7, human 4-1BB on cells; assay: cell-based or functional assay
human 4-1BB on cells [11] = biological target: T7, human 4-1BB on cells; assay: cell-based or functional assay; remark: listed apart in the source
human OX40 on cells = biological target: T8, human OX40 on cells (human, UniProt P43489 29-277); assay: flow cytometry, activated human CD4 T cells
T8 sequence: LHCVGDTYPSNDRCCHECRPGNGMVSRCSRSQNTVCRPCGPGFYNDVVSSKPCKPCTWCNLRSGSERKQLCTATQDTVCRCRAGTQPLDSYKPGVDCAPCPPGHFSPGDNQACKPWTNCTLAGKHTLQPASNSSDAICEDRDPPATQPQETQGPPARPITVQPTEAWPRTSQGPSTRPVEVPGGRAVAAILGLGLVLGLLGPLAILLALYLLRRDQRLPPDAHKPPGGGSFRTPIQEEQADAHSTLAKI

[12] = biological target: T5, mouse 4-1BB on activated mouse …; assay: flow cytometry, activated murine CD8 T cells
Protocol: as §2

[13] = biological target: T5, mouse 4-1BB on activated mouse …; assay: flow cytometry, activated murine CD4 T cells
Protocol: as §2

B1: OX40(49B4)/FAP(28H1) P329GLALA IgG1 4+2 (bispecific antibody)
heavy: not shown
light 1: DIQMTQSPSTLSASVGDRVTITCRASQSISSWLAWYQQKPGKAPKLLIYDASSLESGVPSRFSGSGSGTEFTLTISSLQPDDFATYYCQQYSSQPYTFGQGTKVEIKRTVAAPSVFIFPPSDRKLKSGTASVVCLLNNFYPREAKVQWKVDNALQSGNSQESVTEQDSKDSTYSLSSTLTLSKADYEKHKVYACEVTHQGLSSPVTKSFNRGEC
light 2: EVQLLESGGGLVQPGGSLRLSCAASGFTFSSHAMSWVRQAPGKGLEWVSAIWASGEQYYADSVKGRFTISRDNSKNTLYLQMNSLRAEDTAVYYCAKGWLGNFDYWGQGTLVTVSSASVAAPSVFIFPPSDEQLKSGTASVVCLLNNFYPREAKVQWKVDNALQSGNSQESVTEQDSKDSTYSLSSTLTLSKADYEKHKVYACEVTHQGLSSPVTKSFNRGEC
notes: also called 4+2 (49B4/28H1)
- Kd [1]: 0.00441 nM
- EC50 [2]: 5.51 nM

B4: 11D5 P329GLALA IgG1 (antibody, V domains shown)
VH: QVQLVQSGAEVKKPGSSVKVSCKASGGTFSSYAISWVRQAPGQGLEWMGGIIPIFGTANYAQKFQGRVTITADKSTSTAYMELSSLRSEDTAVYYCARSTLIYGYFDYWGQGTTVTVSS
VL: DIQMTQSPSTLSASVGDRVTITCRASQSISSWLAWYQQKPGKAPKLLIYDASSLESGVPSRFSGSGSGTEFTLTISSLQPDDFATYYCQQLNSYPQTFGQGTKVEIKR
notes: anti-4-1BB; also called 11D5 IgG
- Kd [4]: 36 nM
- koff [4]: 0.0012 s⁻¹
- kon [4]: 32000 M⁻¹ s⁻¹
- binding result [5]: no binding
- EC50 [6]: 0.97 nM
- EC50 [7]: 1.04 nM
- Kd [8]: 24 nM
- koff [8]: 0.00077 s⁻¹
- kon [8]: 31000 M⁻¹ s⁻¹
- EC50 (human 4-1BB on cells [9]): 1.46 nM
- EC50 of increase of IFNγ secretion in activated CD8+ T cells (surface-immobilized IgG) (human 4-1BB on cells [10]): 0.06 nM

B5: 25G7 P329GLALA IgG1 (antibody, V domains shown)
VH: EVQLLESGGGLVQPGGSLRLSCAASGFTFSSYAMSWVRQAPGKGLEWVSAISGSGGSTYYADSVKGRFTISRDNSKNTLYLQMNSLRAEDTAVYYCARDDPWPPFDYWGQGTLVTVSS
VL: SSELTQDPAVSVALGQTVRITCQGDSLRSYYASWYQQKPGQAPVLVIYGKNNRPSGIPDRFSGSSSGNTASLTITGAQAEDEADYYCNSLDRRGMWVFGGGTKLTVLG
notes: anti-4-1BB; also called 25G7 IgG
- Kd [4]: 34 nM
- koff [4]: 0.00099 s⁻¹
- kon [4]: 29000 M⁻¹ s⁻¹
- binding result [5]: no binding
- EC50 [6]: 6.68 nM
- EC50 [7]: 4.52 nM
- Kd [8]: 17 nM
- koff [8]: 0.00046 s⁻¹
- kon [8]: 27000 M⁻¹ s⁻¹
- EC50 (human 4-1BB on cells [9]): 29 nM
- EC50 of increase of IFNγ secretion in activated CD8+ T cells (surface-immobilized IgG) (human 4-1BB on cells [10]): 0.12 nM

B7: 4-1BB(25G7)/FAP(4B9) 2+1 (bispecific antibody, human IgG1, lambda, L234A L235A)
heavy 1: not shown
heavy 2: not shown
light: SSELTQDPAVSVALGQTVRITCQGDSLRSYYASWYQQKPGQAPVLVIYGKNNRPSGIPDRFSGSSSGNTASLTITGAQAEDEADYYCNSLDRRGMWVFGGGTKLTVLGQPKAAPSVTLFPPSSEELQANKATLVCLISDFYPGAVTVAWKADSSPVKAGVETTTPSKQSNNKYAASSYLSLTPEQWKSHRSYSCQVTHEGSTVEKTVAPTECS
- EC50 of NFκB/luciferase activation, 4-1BB reporter HeLa with NIH/3T3-huFAP clone 19 (human 4-1BB on cells [11]): 0.1 nM
- EC50 of NFκB/luciferase activation, 4-1BB reporter HeLa with WM-266-4 (human 4-1BB on cells [11]): 0.3 nM

B10: 49B4/FAP P329GLALA IgG1 2+2 (bispecific antibody)
heavy: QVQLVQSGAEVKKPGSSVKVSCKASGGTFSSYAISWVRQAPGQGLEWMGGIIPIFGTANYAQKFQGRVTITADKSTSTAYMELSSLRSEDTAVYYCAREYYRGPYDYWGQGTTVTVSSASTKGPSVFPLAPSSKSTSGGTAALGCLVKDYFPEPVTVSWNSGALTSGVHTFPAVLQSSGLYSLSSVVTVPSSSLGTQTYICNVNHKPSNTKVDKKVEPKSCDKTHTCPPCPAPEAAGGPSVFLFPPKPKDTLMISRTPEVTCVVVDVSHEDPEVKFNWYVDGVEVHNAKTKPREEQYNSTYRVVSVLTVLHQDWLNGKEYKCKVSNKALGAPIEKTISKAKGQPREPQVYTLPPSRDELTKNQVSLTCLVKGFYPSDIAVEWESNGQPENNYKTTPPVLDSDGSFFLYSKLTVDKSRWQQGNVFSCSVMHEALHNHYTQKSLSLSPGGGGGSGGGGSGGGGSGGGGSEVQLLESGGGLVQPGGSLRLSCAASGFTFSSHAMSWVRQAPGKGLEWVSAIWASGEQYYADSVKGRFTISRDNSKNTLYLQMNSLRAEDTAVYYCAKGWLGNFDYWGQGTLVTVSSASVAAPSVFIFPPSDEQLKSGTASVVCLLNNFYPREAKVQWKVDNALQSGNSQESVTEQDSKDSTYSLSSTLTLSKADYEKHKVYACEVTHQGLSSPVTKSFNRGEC
light 1: B1 light 1 with R123E, K124Q
light 2: EIVLTQSPGTLSLSPGERATLSCRASQSVSRSYLAWYQQKPGQAPRLLIIGASTRATGIPDRFSGSGSGTDFTLTISRLEPEDFAVYYCQQGQVIPPTFGQGTKVEIKSSASTKGPSVFPLAPSSKSTSGGTAALGCLVKDYFPEPVTVSWNSGALTSGVHTFPAVLQSSGLYSLSSVVTVPSSSLGTQTYICNVNHKPSNTKVDKKVEPKSCD
notes: also called 2+2 (49B4/28H1); bispecific bivalent 2+2 construct 49B4
- EC50 [2]: 1.31 nM

B14: 20G2 mu IgG1 κ wt (antibody, V domains shown)
VH: QVQLVQSGAEVKKPGSSVKVSCKASGGTFSSYAISWVRQAPGQGLEWMGGIIPIFGTANYAQKFQGRVTITADKSTSTAYMELSSLRSEDTAVYYCARSYYWESYPFDYWGQGTTVTVSS
VL: DIQMTQSPSTLSASVGDRVTITCRASQSISSWLAWYQQKPGKAPKLLIYDASSLESGVPSRFSGSGSGTEFTLTISSLQPDDFATYYCQQQHSYYTFGQGTKVEIK
notes: mouse IgG1 kappa wild type; also called 20G2 mouse IgG1 wildtype
- EC50 [12]: 18.5 nM
- EC50 [13]: 9.92 nM

Next, values leading:

- EC50 [3]: 1.92 nM
B2: (GITR-DP47) [8A06] 4+1 construct with charged residues (bispecific antibody, V domains shown)
VH: QVQLVQSGAEVKKPGSSVKVSCKASGGTFSSYAISWVRQAPGQGLEWMGGIIPIFGTANYAQKFQGRVTITADKSTSTAYMELSSLRSEDTAVYYCARGYYAIDYWGQGTTVTVSS
VL: SSELTQDPAVSVALGQTVRITCQGDSLRSYYASWYQQKPGQAPVLVIYGKNNRPSGIPDRFSGSSSGNTASLTITGAQAEDEADYYCNSPQTSGSAVFGGGTKLTVL

- EC50 [3]: 2.06 nM
B3: (GITR-FAP) [8A06] 4+2 construct with charged residues (bispecific antibody, V domains shown)
VH 1: B2 VH
VL 1: B2 VL
VH 2: EVQLLESGGGLVQPGGSLRLSCAASGFTFSSHAMSWVRQAPGKGLEWVSAIWASGEQYYADSVKGRFTISRDNSKNTLYLQMNSLRAEDTAVYYCAKGWLGNFDYWGQGTLVTVSS
VL 2: EIVLTQSPGTLSLSPGERATLSCRASQSVSRSYLAWYQQKPGQAPRLLIIGASTRATGIPDRFSGSGSGTDFTLTISRLEPEDFAVYYCQQGQVIPPTFGQGTKVEIK
notes: human IgG1 P329G LALA; also called 4+2 CR

- EC50 of NFκB/luciferase activation, 4-1BB reporter HeLa with NIH/3T3-huFAP clone 19 (human 4-1BB on cells [11]): 3.2 nM
B6: 25G7/FAP P329GLALA IgG1 1+1 (bispecific antibody)
heavy 1: not shown
light 1: B7 light
heavy 2: EVQLLESGGGLVQPGGSLRLSCAASGFTFSSHAMSWVRQAPGKGLEWVSAIWASGEQYYADSVKGRFTISRDNSKNTLYLQMNSLRAEDTAVYYCAKGWLGNFDYWGQGTLVTVSSASVAAPSVFIFPPSDEQLKSGTASVVCLLNNFYPREAKVQWKVDNALQSGNSQESVTEQDSKDSTYSLSSTLTLSKADYEKHKVYACEVTHQGLSSPVTKSFNRGECDKTHTCPPCPAPEAAGGPSVFLFPPKPKDTLMISRTPEVTCVVVDVSHEDPEVKFNWYVDGVEVHNAKTKPREEQYNSTYRVVSVLTVLHQDWLNGKEYKCKVSNKALGAPIEKTISKAKGQPREPQVCTLPPSRDELTKNQVSLSCAVKGFYPSDIAVEWESNGQPENNYKTTPPVLDSDGSFFLVSKLTVDKSRWQQGNVFSCSVMHEALHNHYTQKSLSLSPGK
light 2: B10 light 2

- EC50 of NFκB/luciferase activation, 4-1BB reporter HeLa with NIH/3T3-huFAP clone 19 (human 4-1BB on cells [11]): 0.04 nM
- EC50 of NFκB/luciferase activation, 4-1BB reporter HeLa with WM-266-4 (human 4-1BB on cells [11]): 0.2 nM
B8: 4-1BB(25G7)/FAP(4B9) 4+1 (bispecific antibody, human IgG1, lambda, L234A L235A)
heavy 1: not shown
heavy 2: not shown
light: B7 light

- EC50 of NFκB/luciferase activation, 4-1BB reporter HeLa with NIH/3T3-huFAP clone 19 (human 4-1BB on cells [11]): 0.05 nM
B9: 25G7/FAP P329GLALA IgG1 2+2 (bispecific antibody)
heavy: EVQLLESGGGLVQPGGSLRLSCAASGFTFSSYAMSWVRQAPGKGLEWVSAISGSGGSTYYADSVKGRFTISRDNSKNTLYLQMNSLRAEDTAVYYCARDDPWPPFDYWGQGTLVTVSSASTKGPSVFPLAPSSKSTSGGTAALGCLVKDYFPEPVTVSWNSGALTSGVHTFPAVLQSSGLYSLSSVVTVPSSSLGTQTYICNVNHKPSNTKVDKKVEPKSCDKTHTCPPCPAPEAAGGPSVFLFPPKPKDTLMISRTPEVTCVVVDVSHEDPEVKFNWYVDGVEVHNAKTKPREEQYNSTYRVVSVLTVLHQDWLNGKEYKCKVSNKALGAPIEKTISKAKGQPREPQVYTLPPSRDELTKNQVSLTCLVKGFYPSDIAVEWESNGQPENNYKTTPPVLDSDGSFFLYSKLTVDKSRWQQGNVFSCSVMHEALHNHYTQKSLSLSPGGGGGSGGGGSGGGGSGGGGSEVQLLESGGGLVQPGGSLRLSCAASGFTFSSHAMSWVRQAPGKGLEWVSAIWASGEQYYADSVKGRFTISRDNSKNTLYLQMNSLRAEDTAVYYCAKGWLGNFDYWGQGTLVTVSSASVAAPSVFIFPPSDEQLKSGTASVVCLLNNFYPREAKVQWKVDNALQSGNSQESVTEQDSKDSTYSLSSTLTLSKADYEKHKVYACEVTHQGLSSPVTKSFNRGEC
light 1: B7 light
light 2: B10 light 2

- EC50 of NFκB/luciferase activation, 4-1BB reporter HeLa with NIH/3T3-huFAP clone 19 (human 4-1BB on cells [11]): 0.05 nM
B11: 11D5/FAP P329GLALA IgG1 2+2 (bispecific antibody)
heavy: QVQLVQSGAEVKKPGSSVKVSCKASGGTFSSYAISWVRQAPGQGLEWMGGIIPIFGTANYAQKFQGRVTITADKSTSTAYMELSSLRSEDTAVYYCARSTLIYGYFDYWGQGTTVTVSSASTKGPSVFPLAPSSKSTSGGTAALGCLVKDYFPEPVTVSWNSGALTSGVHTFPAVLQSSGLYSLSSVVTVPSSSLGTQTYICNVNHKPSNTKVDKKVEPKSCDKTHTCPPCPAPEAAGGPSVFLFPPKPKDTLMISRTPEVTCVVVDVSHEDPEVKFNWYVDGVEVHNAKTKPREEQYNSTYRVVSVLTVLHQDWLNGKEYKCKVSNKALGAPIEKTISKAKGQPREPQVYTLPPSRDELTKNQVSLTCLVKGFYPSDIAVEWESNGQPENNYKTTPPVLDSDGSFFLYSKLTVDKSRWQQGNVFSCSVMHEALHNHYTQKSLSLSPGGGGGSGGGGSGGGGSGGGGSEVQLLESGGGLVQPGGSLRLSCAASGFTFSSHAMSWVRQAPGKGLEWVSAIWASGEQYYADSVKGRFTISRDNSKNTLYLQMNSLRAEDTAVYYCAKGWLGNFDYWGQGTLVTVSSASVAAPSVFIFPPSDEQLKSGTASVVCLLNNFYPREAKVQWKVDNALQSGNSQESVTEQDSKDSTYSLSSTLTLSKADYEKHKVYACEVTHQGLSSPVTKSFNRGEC
light 1: not shown
light 2: B10 light 2

- EC50 (human OX40 on cells): 9.37 nM
B12: 1G4/FAP P329GLALA IgG1 2+2 (bispecific antibody)
heavy: not shown
light 1: not shown
light 2: B10 light 2
notes: also called 1G4 FAP 2+2

- EC50 [12]: 17.9 nM
- EC50 [13]: 11.2 nM
B13: 20G2 mu IgG1 κ DAPG (antibody, V domains shown)
VH: B14 VH
VL: B14 VL
notes: mouse IgG1 kappa with DAPG mutations; also called 20G2 mouse IgG1 DAPG
